Our source for the IC50 values is paper PMC2818599.

The assay has as its target HLA-DR DRB1 *1101 (human). The assay is described as follows: radioligand binding.

A word on the IC50: it is the concentration that gives 50% inhibition. Read a high IC50 as lower potency.

HER-2/neu.59 (peptide) came in with an IC50 of 30 nM.
